These results are taken from the supplement of paper PMC5998384.

The test system of data set [1] is HeLa Kyoto. Kind of data set: melting temperature (median over replicates), in situ; higher = more thermally stable.
The subject of data set [2] is HeLa Kyoto. Kind of data set: solubility in G1/S (NP-40 vs SDS abundance) (log2 ratio); higher = more soluble. The conditions noted are these: cell cycle stage: G1/S.
The test system of data set [3] is HeLa Kyoto. The data set can be described thus: thermal stability score vs G1/S (z-score of summed log2 fold changes over temperatures); higher = more thermally stable than in G1/S.
Data set [4] concerns HeLa Kyoto. Kind of data set: solubility change mitosis vs G1/S (difference of NP-40 vs SDS log2 ratios) (log2 ratio difference); higher = more soluble in mitosis.
Where [5] appears, read: cell cycle stage: early G1 (4.5 h after nocodazole release).
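For melting temperature (median over replicates), in situ in this document: HeLa Kyoto cells synchronized by double thymidine or nocodazole block, proteins quantified by TMT10plex mass spectrometry, three independent biological replicates.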
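For solubility change mitosis vs G1/S (difference of NP-40 vs SDS log2 ratios) in this document: synchronized HeLa Kyoto cells (double thymidine block for G1/S, nocodazole release for mitosis), protein amounts in NP-40 versus SDS lysates quantified by mass spectrometry, three biological replicates.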
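For solubility in G1/S (NP-40 vs SDS abundance) in this document: HeLa Kyoto cells arrested at G1/S by double thymidine block, proteins quantified by TMT10plex mass spectrometry in mild NP-40 versus SDS extracts, three biological replicates.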
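For thermal stability score vs G1/S (z-score of summed log2 fold changes over temperatures) in this document: synchronized HeLa Kyoto cells, proteins quantified by TMT10plex mass spectrometry, three biological replicates, mitosis taken 0.5 h after nocodazole release, G1/S directly after double thymidine block.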

Regarding “MQLRNPELHLGCALALRFLALVSWDIPGARALDNGLARTPTMGWLHWERFMCNLDCQEEPDSCISEKLFMEMAELMVSEGWKDAGYEYLCIDDCWMAPQRDSEGRLQADPQRFPHGIRQLANYVHSKGLKLGIYADVGNKTCAGFPGSFGYYDIDAQTFADWGVDLLKFDGCYCDSLENLADGYKHMSLALNRTGRSIVYSCEWPLYMWPFQKPNYTEIRQYCNHWRNFADIDDSWKSIKSILDWTSFNQERIVDVAGPGGWNDPDMLVIGNFGLSWNQQVTQMALWAIMAAPLFMSNDLRHISPQAKALLQDKDVIAINQDPLGKQGYQLRQGDNFEVWERPLSGLAWAVAMINRQEIGGPRSYTIAVASLGKGVACNPACFITQLLPVKRKLGFYEWTSRLRSHINPTGTVLLQLENTMQMSLKDLL”, the melting temperature in the data set on HeLa Kyoto [1] (cell cycle stage: G1/S) is 55.1 °C; with HeLa Kyoto [1] (cell cycle stage: mitosis), 56.7 °C. For the same sequence, the “solubility in G1/S (log2)” value in the data set with HeLa Kyoto [2] is 0.24. Also, the thermal stability score with HeLa Kyoto [3] (setting [5]) was -3.45; in the data set with HeLa Kyoto [3] (cell cycle stage: mitosis), -2.97. Besides, the “solubility change mitosis (log2)” value in the data set with HeLa Kyoto [4] was -0.105.

Take “MQLTVKALQGRECSLQVPEDELVSTLKQLVSEKLNVPVRQQRLLFKGKALADGKRLSDYSIGPNSKLNLVVKPLEKVLLEEGEAQRLADSPPPQVWQLISKVLARHFSAADASRVLEQLQRDYERSLSRLTLDDIERLASRFLHPEVTETMEKGFSK [UBL4A]”: the melting temperature was found to be 51.4 °C in the data set with HeLa Kyoto [1] (cell cycle stage: G1/S) and 51.7 °C with HeLa Kyoto [1] (cell cycle stage: mitosis). Moreover, the “solubility in G1/S (log2)” value in the data set with HeLa Kyoto [2] is 0.557. Further, the thermal stability score with HeLa Kyoto [3] (setting [5]) was determined as 0.0718; in the data set with HeLa Kyoto [3] (cell cycle stage: mitosis) it was 0.136. For the same sequence, the “solubility change mitosis (log2)” value with HeLa Kyoto [4] is 0.277.

For the sequence “MQMSYAIRCAFYQLLLAALMLVAMLQLLYLSLLSGLHGQEEQDQYFEFFPPSPRSVDQVKAQLRTALASGGVLDASGDYRVYRGLLKTTMDPNDVILATHASVDNLLHLSGLLERWEGPLSVSVFAATKEEAQLATVLAYALSSHCPDMRARVAMHLVCPSRYEAAVPDPREPGEFALLRSCQEVFDKLARVAQPGINYALGTNVSYPNNLLRNLAREGANYALVIDVDMVPSEGLWRGLREMLDQSNQWGGTALVVPAFEIRRARRMPMNKNELVQLYQVGEVRPFYYGLCTPCQAPTNYSRWVNLPEESLLRPAYVVPWQDPWEPFYVAGGKVPTFDERFRQYGFNRISQACELHVAGFDFEVLNEGFLVHKGFKEALKFHPQKEAENQHNKILYRQFKQELKAKYPNSPRRC [B4GAT1]”, the melting temperature turned out to be 53.7 °C with HeLa Kyoto [1] (cell cycle stage: G1/S) and 54.1 °C in the data set on HeLa Kyoto [1] (cell cycle stage: mitosis). The “solubility in G1/S (log2)” value with HeLa Kyoto [2] was found to be 0.284. For the same sequence, the thermal stability score in the data set on HeLa Kyoto [3] (setting [5]) stood at 0.621; in the data set on HeLa Kyoto [3] (cell cycle stage: mitosis), 0.329. Besides, the “solubility change mitosis (log2)” value in the data set on HeLa Kyoto [4] amounted to 0.00523.

As for “MQMVPSLPPASECAGEEKRVGTRTVFVGNHPVSETEAYIAQRFCDNRIVSSKYTLWNFLPKNLFEQFRRIANFYFLIIFLVQVTVDTPTSPVTSGLPLFFVITVTAIKQGYEDCLRHRADNEVNKSTVYIIENAKRVRKESEKIKVGDVVEVQADETFPCDLILLSSCTTDGTCYVTTASLDGESNCKTHYAVRDTIALCTAESIDTLRAAIECEQPQPDLYKFVGRINIYSNSLEAVARSLGPENLLLKGATLKNTEKIYGVAVYTGMETKMALNYQGKSQKRSAVEKSINAFLIVYLFILLTKAAVCTTLKYVWQSTPYNDEPWYNQKTQKERETLKVLKMFTDFLSFMVLFNFIIPVSMYVTVEMQKFLGSFFISWDKDFYDEEINEGALVNTSDLNEELGQVDYVFTDKTGTLTENSMEFIECCIDGHKYKGVTQEVDGLSQTDGTLTYFDKVDKNREELFLRALCLCHTVEIKTNDAVDGATESAELTYISSSPDEIALVKGAKRYGFTFLGNRNGYMRVENQRKEIEEYELLHTLNFDAVRRRMSVIVKTQEGDILLFCKGADSAVFPRVQNHEIELTKVHVERNAMDGYRTLCVAFKEIAPDDYERINRQLIEAKMALQDREEKMEKVFDDIETNMNLIGATAVEDKLQDQAAETIEALHAAGLKVWVLTGDKMETAKSTCYACRLFQTNTELLELTTKTIEESERKEDRLHELLIEYRKKLLHEFPKSTRSFKKAWTEHQEYGLIIDGSTLSLILNSSQDSSSNNYKSIFLQICMKCTAVLCCRMAPLQKAQIVRMVKNLKGSPITLSIGDGANDVSMILESHVGIGIKGKEGRQAARNSDYSVPKFKHLKKLLLAHGHLYYVRIAHLVQYFFYKNLCFILPQFLYQFFCGFSQQPLYDAAYLTMYNICFTSLPILAYSLLEQHINIDTLTSDPRLYMKISGNAMLQLGPFLYWTFLAAFEGTVFFFGTYFLFQTASLEENGKVYGNWTFGTIVFTVLVFTVTLKLALDTRFWTWINHFVIWGSLAFYVFFSFFWGGIIWPFLKQQRMYFVFAQMLSSVSTWLAIILLIFISLFPEILLIVLKNVRRRSARRNLSCRRASDSLSARPSVRPLLLRTFSDESNVL [ATP11C]”, the melting temperature in the data set with HeLa Kyoto [1] (cell cycle stage: G1/S) amounted to 55.2 °C; with HeLa Kyoto [1] (cell cycle stage: mitosis), 55 °C. Also, in the data set on HeLa Kyoto [2], the “solubility in G1/S (log2)” value was -0.156. Moreover, the thermal stability score was -0.694 with HeLa Kyoto [3] (setting [5]) and -1.66 in the data set with HeLa Kyoto [3] (cell cycle stage: mitosis). Besides, the “solubility change mitosis (log2)” value in the data set with HeLa Kyoto [4] is -0.202.
